According to the supplement of paper PMC10567573:
± gives the standard deviation.

Assay: protein stability index of a GFP-peptide fusion (GPS, HEK-293T) (PSI 1-6); higher = more stable
[1] = treatment: DMSO, c terminus: a fixed tail appended
[2] = treatment: MLN4924 1 uM, 8 h, c terminus: a fixed tail appended
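Further: 24-mer peptide tiles fused after GFP, lentivirally expressed, FACS-sorted into six equal bins by GFP/DsRed ratio, decoded by Illumina sequencing, PSI is the read-weighted mean bin number.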

Sequence	protein stability index [1]	protein stability index [2]	protein stability index (treatment: DMSO, c terminus: native)	protein stability index (treatment: MLN4924 1 uM, 8 h, c terminus: native)
SEASKAFQMEKIEHGYENMNHFTV [TRIM55]	3.29 ± 0.21	3.38 ± 0.28	–	–
CEKFLQEVDFFQRYFIADLPHLQD [INTS4]	2.49 ± 0.54	1.95 ± 0.48	–	–
PALKECIQGADTIRCVYILDPWFA [CRY1]	2.95 ± 0.55	2.73 ± 0.74	–	–
CPPLHIPGSMSEVQELCKQLHAKI [TNNI2]	2.88 ± 0.3	2.93 ± 0.14	–	–
AKGHVKLSDFGLCTGLKKAHRTEF [STK38L]	2.75 ± 0.21	2.61 ± 0.15	–	–
ARAEAEQMAKKAEAFQLYQEAAQL [FLOT1]	4.49 ± 0.17	4.52 ± 0.3	–	–
AWEDSHGSQDGHFVLSCSYDGLDC [SCNN1D]	3.73 ± 0.17	3.59 ± 0.19	–	–
KNNICFMSHHQEELVPKQPQKRKP [SLC2A12]	4.31 ± 0.14	4.64 ± 0.3	–	–
FLLIVTLCVILYKKVHKGTVPKND [GLT8D2]	2.59 ± 0.8	2.3 ± 0.59	–	–
AQAAAAESDSRKVAEETPDGAPAL [PRKX]	5.38 ± 0.092	5.55 ± 0.12	–	–
PESQMCRKFSRECEDQKQIKKPES [NEUROD6]	5.09 ± 0.38	5.31 ± 0.22	–	–
MQEDRDGSCSTVGGVGYGDSKDCI [ZNF277]	5.04 ± 0.28	5.1 ± 0.18	–	–
EFNELLSKYQLSEAQLSLIRDIRR [NFE2L1]	2.57 ± 0.22	2.82 ± 0.38	–	–
NSGTDQEQIHLLLSSQCFSNISRP [M1AP]	2.98 ± 0.21	3.18 ± 0.27	–	–
LLCWSVWWALSTCGYFQVVNYTQG [SLC19A2]	3.41 ± 0.59	3.61 ± 0.29	–	–
AISITAIAKYSDGASKAAGVFGFF [CMTM3]	2.96 ± 0.88	2.78 ± 0.4	–	–
PSAAGAPASAPGEPRQRRLLLLDL [ANKRD9]	2.86 ± 0.29	3.11 ± 0.4	–	–
FGWETKIKAWMDRYEEANNNQYSE [KMT2E]	3.1 ± 0.18	3.58 ± 0.13	–	–
PAMVRISKPKTFQAYLDDCHRRYS [YPEL3]	2.96 ± 0.11	2.92 ± 0.17	–	–
PRAAGTDGSDFQHRERVAMHYQMS [JAGN1]	3.96 ± 0.25	4.06 ± 0.18	–	–
TAAGGQGGPGGPGSDKQQQQQHIE [NR2F2]	5.34 ± 0.27	5.47 ± 0.19	–	–
GGSSGQVTSNGSIGRDPPAETQPQ [CLPTM1]	5.47 ± 0.24	5.42 ± 0.21	–	–

Sequence	protein stability index [1]	protein stability index [2]	protein stability index (treatment: DMSO, c terminus: native)	protein stability index (treatment: MLN4924 1 uM, 8 h, c terminus: native)
GALMEVMQKRSKAIHSSDEDEDED [WASL]	5.49 ± 0.19	5.41 ± 0.17	–	–
IRVWFQNKRCKDKKKSILMKQLQQ [ISL2]	2.08 ± 0.26	2.17 ± 0.23	–	–
SSCVKYLIFLSNFPFSLLGLLALA [TSPAN10]	2.94 ± 0.35	2.93 ± 0.35	–	–
LRAESDFEQLPDDVAISANIADIE [NCF4]	4.66 ± 0.28	5.21 ± 0.19	–	–
QQIGDAIRMIVRGTLGSCSSSSEC [PLK2]	2.1 ± 0.23	2.08 ± 0.39	–	–
EKGLPLRKTHVLLGRSHDTVQEAA [MFSD9]	4.22 ± 0.23	4.15 ± 0.34	–	–
RAGGPPRPMSEPGAGAGSSLLDVA [SMAD6]	4.39 ± 0.39	4.37 ± 0.39	–	–
TVDSMIPAYATTRIRSQIGNTESE [GDAP1]	4.86 ± 0.16	4.99 ± 0.076	–	–
ELDELLKEISRKRRSIRYGREVEL [PTPRD]	2.5 ± 0.68	2.96 ± 0.61	–	–
SFSGKVFPFFAVWKKGSCLTLKG [TRIM15]	–	–	3.25 ± 0.88	2.92 ± 0.61
FAKAGDTLSGTCLLIANKRQSYDI [CARM1]	2.48 ± 0.38	2.36 ± 0.41	–	–
DEPQETAYRTQVSSCCLHICQGIR [PKD2L1]	2.8 ± 0.61	3.1 ± 0.46	–	–
LLAHRLRRWHKSRLLQASGGGLTG [PCDHGA10]	2.52 ± 0.47	2.07 ± 0.35	–	–
SLFCLEDKELLCCSCQADPRHQGH [TRIM35]	3.06 ± 0.16	3.35 ± 0.4	–	–
TINIKCHVHDPHGQVIWGMSWAKL [FBXO39]	2.84 ± 0.5	2.67 ± 0.46	–	–
MAMYWGTSRWSSMEIMEAYSVARQ [KCNAB2]	2.43 ± 0.52	2.06 ± 0.43	–	–
CDSTNAAIAKQALKKPIKGKQAPR [KMT5A]	4.79 ± 0.22	4.74 ± 0.29	–	–
TSKDLVTLGASSLREERGHPLHPR [C6orf223]	4.26 ± 0.063	4.33 ± 0.18	–	–
HMVRESKIMEAESQKATRECEKSA [FAN1]	5.29 ± 0.3	5.24 ± 0.14	–	–
PDLPFQIKPSENHYSLLTSQPLDR [PCDHGC5]	3.97 ± 0.22	4.13 ± 0.14	–	–
VLGSQDALPIATAFTEYVHAYFRG [FCHO1]	2.51 ± 0.25	2.43 ± 0.21	–	–
GRASRFLQSISWDPEDFEDAWKRP [TLE6]	3.15 ± 0.21	3.13 ± 0.31	–	–

Sequence	protein stability index [1]	protein stability index [2]	protein stability index (treatment: DMSO, c terminus: native)	protein stability index (treatment: MLN4924 1 uM, 8 h, c terminus: native)
IKKPESFSKQIVLRGKSIKRAPGE [NEUROD6]	3.9 ± 0.12	4 ± 0.22	–	–
EQQQILIRQLQEQHYQQYMQQLYQ [ACBD3]	2.2 ± 0.38	2.24 ± 0.3	–	–
EFCRNTLCAPEVISLINTRMLFWA [FAF2]	2.74 ± 0.45	2.73 ± 0.32	–	–
GHGAEQAAAFPTEDSRTSKESMSE [EHMT1]	5.69 ± 0.2	5.19 ± 0.62	–	–
KQLNCVEISALNGNRINVPMVRKR [DLC1]	4.12 ± 0.24	4.07 ± 0.3	–	–
VAAAASRGADDAMESSKPGPVQVV [ATL3]	5.03 ± 0.26	4.9 ± 0.25	–	–
IKPSENHYSLLTSQPLDREATSHY [PCDHGC5]	3.87 ± 0.062	3.93 ± 0.38	–	–
PDGLMYQKFRNQFLSFSMYQSFVQ [TMEM120A]	2.68 ± 0.59	2.33 ± 0.76	–	–
VMARTRLVVPNKGYSSLDQSPDEK [FAM219A]	4.62 ± 0.34	3.88 ± 0.42	–	–
GSVYFWATPRQVPSLQHLCRMSIR [WSB1]	3.05 ± 0.2	2.7 ± 0.043	–	–
AQGPNKPGYLVGRNNANGVDLNRN [CPN1]	4.33 ± 0.11	4.35 ± 0.16	–	–
KVPAPKDVLAHQVPNAKKLRRKEQ [NOP53]	4.76 ± 0.26	4.99 ± 0.17	–	–
VTSDVNKLSSFYSLKLIKRLYVDK [SERPINB5]	2.18 ± 0.18	2.29 ± 0.18	–	–
DGGEPQSVQVDGQARTQKLQGLIP [TNXB]	–	5.22 ± 0.99	–	–
RNKIIAATIENAQPILQIDNARLA [KRT16]	3.35 ± 0.13	3.64 ± 0.14	–	–
YLHNHFIGEGMTKYDYLMTLHGVV [TENT5D]	2.83 ± 0.6	2.48 ± 0.62	–	–
PLLMNRQRVPKVLVENAKNFPQCV [EFHC1]	2.46 ± 0.44	2.47 ± 0.072	–	–
RRLAQEPLGLEVDQFLEDVRLQER [NOP53]	4.5 ± 0.16	4.54 ± 0.13	–	–
EMCHKPDVELLQDLGDIVARSESV [TRIM43]	4.66 ± 0.15	4.62 ± 0.24	–	–
YLHTNVALVAPLLRLENNHCHIEE [VPS39]	2.33 ± 0.2	2.74 ± 0.34	–	–
AAAAMYTFLPDNFSPAKPKPSKEL [MYORG]	3.62 ± 0.11	3.59 ± 0.3	–	–
